In US20210380702A1 (Regeneron, published 2021):
Changes are numbered by the printed parent chain. Values belong to the binder of their own block, whether it stands above or below them.

Tests used:
[1] = target: T1, Human PD-L1 Dimer (human, UniProt Q9NZQ7 19-239); test: SPR (Biacore), mAb captured, 37C
T1 construct: also called hPD-L1 dimer; hPD-L1-hFc
Procedure: (§1) Binding association and dissociation rate constants (kₐ and kd, respectively), equilibrium dissociation constants and dissociation half-lives (KD and t_{1/2}, respectively) of antigen binding to purified anti-PD-L1 monoclonal antibodies were determined using a real-time surface plasmon resonance biosensor assay on a Biacore 4000 instrument. The Biacore sensor surface was either derivatized with polyclonal rabbit anti-mouse antibody (GE, #BR-1008-38) or with monoclonal mouse anti-human Fc antibody (GE, #BR-1008-39) to capture approximately 200-300 RUs of anti-PD-L1 monoclonal antibodies, expressed with either a mouse Fc or with human Fc, respectively. […] Different concentrations of PD-L1 reagents were injected over the anti-PD-L1 monoclonal antibody captured surface at a flow rate of 30 μL/min. The binding of the PD-L1 reagents to the captured monoclonal antibodies was monitored for 3 to 4 minutes while the dissociation of antibody bound PD-L1 reagents was monitored for 10 minutes in HBST running buffer (0.01 M HEPES pH 7.4, 0.15 M NaCl, 3 mM EDTA, 0.05% v/v Surfactant tween-20). Experiments were performed at either 25° C. or 37° C. Kinetic association (kₐ) and dissociation (kd) rate constants were determined by processing and fitting the data to a 1:1 binding model using Scrubber 2.0c curve fitting software. Binding dissociation equilibrium constants (KD) and dissociative half-lives (t_{1/2}) were then calculated from the kinetic rate constants as: KD (M)=kd/kₐ and t_{1/2} (min)=[In2/(60*kd)].

[2] = target: T2, recombinant cynomolgus monkey PD-L1 with a C-terminal myc-myc-hexahistidine tag (cynomolgus monkey (Macaca fascicularis)); test: SPR (Biacore), mAb captured, 37C
T2 construct: also called MfPD-L1-MMH; MfPD-L1-MMH Monomer
T2 sequence (chain, as listed by the source limits assumed): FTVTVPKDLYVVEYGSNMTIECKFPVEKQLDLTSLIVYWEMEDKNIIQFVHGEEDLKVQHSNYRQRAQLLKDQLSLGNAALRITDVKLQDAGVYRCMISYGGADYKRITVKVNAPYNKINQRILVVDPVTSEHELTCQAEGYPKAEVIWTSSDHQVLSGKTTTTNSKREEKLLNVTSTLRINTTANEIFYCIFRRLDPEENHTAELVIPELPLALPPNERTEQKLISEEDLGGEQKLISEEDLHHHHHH
Procedure: as §1

[3] = target: T3, recombinant human PD-L1 (amino acids 19-239 of NP_054862.1) with a C-terminal myc-myc-hexahistidine tag (human); test: SPR (Biacore), mAb captured, 37C
T3 construct: also called hPD-L1-MMH; hPD-L1-MMH Monomer
T3 sequence (chain, as listed by the source limits assumed): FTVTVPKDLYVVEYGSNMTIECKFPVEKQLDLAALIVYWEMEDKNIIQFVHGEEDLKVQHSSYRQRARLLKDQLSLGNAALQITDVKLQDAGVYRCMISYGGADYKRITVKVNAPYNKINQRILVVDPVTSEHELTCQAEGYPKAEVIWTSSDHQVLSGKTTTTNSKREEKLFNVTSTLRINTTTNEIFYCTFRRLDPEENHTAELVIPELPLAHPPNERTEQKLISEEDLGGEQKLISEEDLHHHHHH
Procedure: as §1

[4] = target: T1, Human PD-L1 Dimer; test: SPR (Biacore), mAb captured, 25C
Procedure: as §1

[5] = target: T2, recombinant cynomolgus monkey PD-L1 …; test: SPR (Biacore), mAb captured, 25C
Procedure: as §1

[6] = target: T4, recombinant cynomolgus monkey PD-L1 with a C-terminal mouse IgG2a Fc tag (cynomolgus monkey (Macaca fascicularis)); test: SPR (Biacore), mAb captured, 25C
T4 construct: also called MfPD-L1-mFc; monkey PD-L1-mFc
T4 sequence (chain, as listed by the source limits assumed): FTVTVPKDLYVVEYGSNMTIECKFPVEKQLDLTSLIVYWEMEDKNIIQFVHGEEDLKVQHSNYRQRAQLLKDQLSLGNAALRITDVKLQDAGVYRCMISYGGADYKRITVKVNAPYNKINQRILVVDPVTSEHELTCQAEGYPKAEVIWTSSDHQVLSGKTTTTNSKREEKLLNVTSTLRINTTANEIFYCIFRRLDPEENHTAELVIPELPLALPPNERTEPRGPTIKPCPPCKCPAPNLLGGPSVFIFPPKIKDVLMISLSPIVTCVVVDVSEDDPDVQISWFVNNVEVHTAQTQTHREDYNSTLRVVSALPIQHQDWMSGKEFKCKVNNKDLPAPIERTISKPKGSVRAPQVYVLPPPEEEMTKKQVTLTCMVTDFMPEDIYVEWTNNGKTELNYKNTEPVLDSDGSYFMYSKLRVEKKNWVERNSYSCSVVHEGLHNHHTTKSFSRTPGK
Procedure: as §1

T1 sequence (Q9NZQ7 19-239): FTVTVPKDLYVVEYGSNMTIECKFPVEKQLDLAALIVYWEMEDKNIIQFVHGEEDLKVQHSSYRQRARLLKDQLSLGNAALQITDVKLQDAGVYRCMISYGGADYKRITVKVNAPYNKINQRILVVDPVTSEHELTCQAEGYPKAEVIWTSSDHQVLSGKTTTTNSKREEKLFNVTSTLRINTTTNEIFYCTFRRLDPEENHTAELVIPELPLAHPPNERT

Kd [1]: 0.689 nM
koff [1]: 0.00267 s⁻¹
kon [1]: 3.87e+06 M⁻¹ s⁻¹
t1/2 [1]: 4.3 min
Kd [2]: 137 nM
koff [2]: 0.364 s⁻¹
kon [2]: 2.66e+06 M⁻¹ s⁻¹
t1/2 [2]: 0.03 min
Kd [3]: 117 nM
koff [3]: 0.329 s⁻¹
kon [3]: 2.82e+06 M⁻¹ s⁻¹
t1/2 [3]: 0.04 min
Kd [4]: 0.259 nM
koff [4]: 0.000768 s⁻¹
kon [4]: 2.97e+06 M⁻¹ s⁻¹
t1/2 [4]: 15 min
Kd [5]: 76.9 nM
koff [5]: 0.135 s⁻¹
kon [5]: 1.76e+06 M⁻¹ s⁻¹
t1/2 [5]: 0.09 min
Kd [6]: 0.386 nM
koff [6]: 0.000672 s⁻¹
kon [6]: 1.74e+06 M⁻¹ s⁻¹
t1/2 [6]: 17 min
B1: H1H9329P (antibody, human IgG1, V domains shown)
VH: EVQLVESGGGLVQSGGSLRLSCAASGFTFSSYWMSWVRQAPGKGLEWVANIKQDGSEKYYVDSVKGRFTISRDNAKNSLYLQMNSLRADDTAVYYCARDDIVVVPAPMGYYYYYFGMDVWGQGTTVTVSS
VL: DIQMTQSPSSLSASVGDRVTITCRASQGIRNDLGWYQQKPGKAPKRLIYAASSLQSGVPSRFSGSGSGTEFTLTISSLQPEDFATYYCLQHNSYPYTFGQGTKLEIK

Kd [1]: 0.732 nM
koff [1]: 0.000261 s⁻¹
kon [1]: 357000 M⁻¹ s⁻¹
t1/2 [1]: 44 min
Kd [2]: 32.7 nM
koff [2]: 0.00332 s⁻¹
kon [2]: 101000 M⁻¹ s⁻¹
t1/2 [2]: 3.5 min
Kd [3]: 45.3 nM
koff [3]: 0.00403 s⁻¹
kon [3]: 88900 M⁻¹ s⁻¹
t1/2 [3]: 2.9 min
Kd [4]: 0.413 nM
koff [4]: 0.000102 s⁻¹
kon [4]: 247000 M⁻¹ s⁻¹
t1/2 [4]: 113 min
Kd [5]: 8.42 nM
koff [5]: 0.000597 s⁻¹
kon [5]: 70900 M⁻¹ s⁻¹
t1/2 [5]: 19 min
B2: H2aM8312N (antibody, mouse IgG2, V domains shown)
VH: QVHLVQSGAEVKKPGASVKVSCKASGYTFTGYYIHWVRQAPGHGLEWMGWLNPNTGTTKYIQNFQGRVTMTRDTSSSTAYMELTRLRSDDTAVYYCARDEDWNYGSWFDTWGQGTLVTVSS
VL: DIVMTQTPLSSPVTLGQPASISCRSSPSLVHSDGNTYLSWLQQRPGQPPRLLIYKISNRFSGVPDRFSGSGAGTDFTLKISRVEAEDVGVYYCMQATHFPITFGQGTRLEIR
notes: also called H2M8312N

Kd [1]: 0.258 nM
koff [1]: 0.000124 s⁻¹
kon [1]: 481000 M⁻¹ s⁻¹
t1/2 [1]: 93 min
Kd [2]: 2.27 nM
koff [2]: 0.00107 s⁻¹
kon [2]: 471000 M⁻¹ s⁻¹
t1/2 [2]: 11 min
Kd [3]: 9.7 nM
koff [3]: 0.00128 s⁻¹
kon [3]: 132000 M⁻¹ s⁻¹
t1/2 [3]: 9 min
Kd [4]: 0.183 nM
koff [4]: 5.71e-05 s⁻¹
kon [4]: 313000 M⁻¹ s⁻¹
t1/2 [4]: 202 min
Kd [5]: 2.97 nM
koff [5]: 0.000306 s⁻¹
kon [5]: 103000 M⁻¹ s⁻¹
t1/2 [5]: 38 min
B3: H2aM8310N (antibody, mouse IgG2, V domains shown)
VH: QVQLVQSGAEVKKPGASVQVSCKASGYSFTGYYIHWVRQAPGQGLEWMGWINPNSGTKKYAHKFQGRVTMTRDTSIDTAYMILSSLISDDTAVYYCARDEDWNFGSWFDSWGQGTLVTVSS
VL: DIVMTQTPLSSPVTLGQPASISCRSSQTLVHGDGNTYLSWIQQRPGQPPRLLIYKVSNQFSGVPDRFSGSGAGTDFTLKISRVEAEDVGLYFCMQATHFPITFGQGTRLEIK
notes: also called H2M8310N

Kd [1]: 0.028 nM
koff [1]: 0.000121 s⁻¹
kon [1]: 4.32e+06 M⁻¹ s⁻¹
t1/2 [1]: 96 min
Kd [2]: 29.5 nM
koff [2]: 0.0282 s⁻¹
kon [2]: 956000 M⁻¹ s⁻¹
t1/2 [2]: 0.4 min
Kd [3]: 0.497 nM
koff [3]: 0.000684 s⁻¹
kon [3]: 1.38e+06 M⁻¹ s⁻¹
t1/2 [3]: 17 min
Kd [4]: 0.00704 nM
koff [4]: 2.05e-05 s⁻¹
kon [4]: 2.91e+06 M⁻¹ s⁻¹
t1/2 [4]: 565 min
Kd [5]: 15.9 nM
koff [5]: 0.00868 s⁻¹
kon [5]: 547000 M⁻¹ s⁻¹
t1/2 [5]: 1.3 min
B4: H2aM8323N (antibody, mouse IgG2, V domains shown)
VH: QVQLVQSGAEVKMPGSSVRVSCKASGGIFSSSTISWVRQAPGQGLEWMGEIIPVFGTVNYAQKFQDRVIFTADESTTTAYMELSSLKSGDTAVYFCARNWGLGSFYIWGQGTMVTVSS
VL: EIVLTQSPGTLSLSPGERATLSCRASQSFNFNYLAWYQQKPGQAPRLLIYGASSRATGIPDRFSGSGSGTDFTLTINRLEPEDFGVFYCQQYESAPWTFGQGTKVEIK
notes: also called H2M8323N

Kd [6]: 0.0231 nM
koff [6]: 6.16e-05 s⁻¹
kon [6]: 2.67e+06 M⁻¹ s⁻¹
t1/2 [6]: 188 min
B5: H1H8323N (antibody, human IgG1, V domains shown)
VH: B4 VH
VL: B4 VL

Kd [1]: 0.00591 nM
koff [1]: 2.3e-05 s⁻¹
kon [1]: 3.89e+06 M⁻¹ s⁻¹
t1/2 [1]: 503 min
Kd [2]: 0.142 nM
koff [2]: 0.000152 s⁻¹
kon [2]: 1.07e+06 M⁻¹ s⁻¹
t1/2 [2]: 76 min
Kd [3]: 0.14 nM
koff [3]: 0.00015 s⁻¹
kon [3]: 1.07e+06 M⁻¹ s⁻¹
t1/2 [3]: 77 min
Kd [4]: 0.00426 nM
koff [4]: 1.35e-05 s⁻¹
kon [4]: 3.16e+06 M⁻¹ s⁻¹
t1/2 [4]: 859 min
Kd [5]: 0.0724 nM
koff [5]: 7e-05 s⁻¹
kon [5]: 966000 M⁻¹ s⁻¹
t1/2 [5]: 165 min
B6: H2aM8314N (antibody, mouse IgG2, V domains shown)
VH: EVQLVESGGGVVRPGGSLRLSCAASGFTFDDYGMTWVRQAPGRGLEWVSGIHWHGKRTGYADSVKGRFTISRDNAKKSLYLQMNSLKGEDTALYHCVRGGMSTGDWFDPWGQGTLVIVSS
VL: DIQMTQSPSSLSASLGDRVTITCRASQSINSYLNWYQQKPGKAPKLLIYVASSLQSGVPSRFSGSGSGTEFTLTISNLQPEDFATYYCQQSYSTPPITFGQGTRLEIK
notes: also called H2M8314N

Kd [1]: 1.36 nM
koff [1]: 0.000657 s⁻¹
kon [1]: 481000 M⁻¹ s⁻¹
t1/2 [1]: 18 min
Kd [2]: 179 nM
koff [2]: 0.0476 s⁻¹
kon [2]: 266000 M⁻¹ s⁻¹
t1/2 [2]: 0.2 min
Kd [3]: 647 nM
koff [3]: 0.0585 s⁻¹
kon [3]: 90300 M⁻¹ s⁻¹
t1/2 [3]: 0.2 min
Kd [4]: 1.25 nM
koff [4]: 0.00045 s⁻¹
kon [4]: 359000 M⁻¹ s⁻¹
t1/2 [4]: 26 min
Kd [5]: 226 nM
koff [5]: 0.0238 s⁻¹
kon [5]: 106000 M⁻¹ s⁻¹
t1/2 [5]: 0.5 min
B7: H2aM8317N (antibody, mouse IgG2, V domains shown)
VH: EVQLVESGGGLVQPGGSLRLSCAASGFTVGSNYMNWVRQAPGKGLEWVSVIYSGGSTYYADSVKGRFTISRLTSKNTLYLQMSSLRPEDTAVYYCARGIRGLDVWGQGTTVTVSS
VL: B6 VL with L15V, S28T, S31I, K42R, K45R, V50A, E70D, N77S, Q89H
notes: also called H2M8317N

Kd [1]: 0.285 nM
koff [1]: 0.000269 s⁻¹
kon [1]: 946000 M⁻¹ s⁻¹
t1/2 [1]: 43 min
Kd [2]: 51.1 nM
koff [2]: 0.00816 s⁻¹
kon [2]: 159000 M⁻¹ s⁻¹
t1/2 [2]: 1.4 min
Kd [3]: 91.6 nM
koff [3]: 0.00929 s⁻¹
kon [3]: 101000 M⁻¹ s⁻¹
t1/2 [3]: 1.2 min
Kd [4]: 0.353 nM
koff [4]: 0.000287 s⁻¹
kon [4]: 813000 M⁻¹ s⁻¹
t1/2 [4]: 40 min
Kd [5]: 29.9 nM
koff [5]: 0.00402 s⁻¹
kon [5]: 134000 M⁻¹ s⁻¹
t1/2 [5]: 2.9 min
B8: H2aM8321N (antibody, mouse IgG2, V domains shown)
VH: EERLVESGGDLVQPGGSLRLSCAASGITVGTNYMNWVRQAPGKGLEWVSVISSGGNTHYADSVKGRFIMSRQTSKNTLYLQMNSLETEDTAVYYCARGIRGLDVWGQGTMVTVSS
VL: B6 VL with L15V, I29M, N30S, K42R, Y49F, V50A, E70D, N77S
notes: also called H2M8321N

Kd [6]: 0.0263 nM
koff [6]: 6.77e-05 s⁻¹
kon [6]: 2.58e+06 M⁻¹ s⁻¹
t1/2 [6]: 171 min
B9: H1H8314N (antibody, human IgG1, V domains shown)
VH: B6 VH
VL: B6 VL

Kd [1]: 0.0302 nM
koff [1]: 8.31e-05 s⁻¹
kon [1]: 2.75e+06 M⁻¹ s⁻¹
t1/2 [1]: 139 min
Kd [2]: 1.38 nM
koff [2]: 0.00125 s⁻¹
kon [2]: 909000 M⁻¹ s⁻¹
t1/2 [2]: 9.2 min
Kd [3]: 0.733 nM
koff [3]: 0.000788 s⁻¹
kon [3]: 1.07e+06 M⁻¹ s⁻¹
t1/2 [3]: 15 min
Kd [4]: 0.0786 nM
koff [4]: 0.000109 s⁻¹
kon [4]: 1.38e+06 M⁻¹ s⁻¹
t1/2 [4]: 106 min
Kd [5]: 0.876 nM
koff [5]: 0.000594 s⁻¹
kon [5]: 679000 M⁻¹ s⁻¹
t1/2 [5]: 19 min
Kd [6]: 0.0622 nM
koff [6]: 6.16e-05 s⁻¹
kon [6]: 990000 M⁻¹ s⁻¹
t1/2 [6]: 188 min
B10: H1H9336P (antibody, human IgG1, V domains shown)
VH: EVQLVESGGGLVQPGRSLRLSCAASGFTFDDFAMHWVRQAPGKGLEWVSGISWTGGNMDYANSVKGRFTISREDAKNSLYLQMNSLRAADTALYYCVKDIRGIVATGGAFDIWGRGTMVTVSS
VL: DIQMTQSPSSLSASVGDRVTISCRASQTISTYLNWFQQKPGKAPKLLIYVVSSLQSGVPSRFSGSGSGTDFTLTISSLQPEDFATYYCQQSYSTPFTFGPGTKVDIK
